Measured values as given in patent US20210292393A1 (published 2021).
Positions count from the first letter of the chain named.

B1: anti-SARS-CoV-2 antibody 923 (antibody, V domains shown)
VH: EVQLVESGGGVVRPGGSLRLSCAASGFIFDDYDMTWVRQAPGKGLEWVSGISWNGGNTGYADSVKGRFTISRDNAKNSLYLQMNSLRAEDTALYHCAVIMSPIPRYSGYDWAGGAFDIWGQGTMVTVSS
VL: SSELTQDPAVSVALGQTVRITCQGDSLRSYYASWYQQKPGQVPILVIYDKNNRPSGIPDRFSGSSSGNTASLTITGAQAEDEADYYCNSRDSSGNAVVFGGGTKLTVL
B2: anti-SARS-CoV-2 antibody 933 (antibody, V domains shown)
VH: QVQLVQSGAEVKKPGASVKVSCKASGYTFTTYDINWVRQATGQGLEWMGWMNPNSGYTDSAQKFQGRVTMTRNTSISTAYMELSSLRSEDTAVYYCASGRGVKTYYFDYWGQGTLVTVSS
VL: SYELTQPPSVSVSPGQTASITCSGDKLGDKSACWYQQKPGQSPVLVICQDTKRPSGIPERFSGSNSGNTATLTISGTQAMDEADYYCQAWDSRTVVFGGGTKLTVL
B3: anti-SARS-CoV-2 antibody 966 (antibody, V domains shown)
VH: QVQLVESGGGVVQPGRSLRLSCAASEFTFSSYGMHWVRQAPGKGLEWVAVISHDGSNEYYADSVKGRFTISRDNSKNTLYLQMNSLRAEDTAVYYCAKWRGPHRGYYDRSGYYLGSSRDDYWGQGTLVTVSS
VL: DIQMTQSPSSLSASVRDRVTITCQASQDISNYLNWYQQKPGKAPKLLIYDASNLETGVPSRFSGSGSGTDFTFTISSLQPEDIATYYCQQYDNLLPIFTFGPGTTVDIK
B4: anti-SARS-CoV-2 antibody 989 (antibody, V domains shown)
VH: QVQLQESGPGLVKPSQTLSLTCTVSGGSISSGSYYWSWIRQPAGKGLEWIGRIYTSGSTNYNPSLKSRVTMSVDTSKNHFSLKLRSVTAADTAVYYCARGIAVAGDDDYYYYYGLDVWGQGTTVTVSS
VL: SYELTQPPSVSVSPGQTARITCSGDALPKQYAYWYQQKPGQAPVMVINKDSERPSGIPERFSGSSSGTTVTLTISGVQAEDEADYYCHSADSSGTYWVFGGGTKLTVL
B5: anti-SARS-CoV-2 antibody 1000 (antibody, V domains shown)
VH: EVQLVESGGGLVQPGRSLRLSCAASGFTFDDYAMHWVRQAPGEGLEWVSGISWNSGSIGYADSVKGRFTISRDNAKNSLYLQMNSLRAEDTALYYCAKDTRFSFGTIAAAVSGYGMDVWGQGTTVTVSS
VL: QSALTQPASVSGSPGQSITISCTGTSSDVGIFNLVSWYQQHPGKAPKLMIYEVTKRPSGVSNRFSGSKSGNTASLTISGLQAEDEADYYCCSYAGSYVFGTGTKVTVL
B6: anti-SARS-CoV-2 antibody 1009 (antibody, V domains shown)
VH: QLQLQESGPGLVKPSQTLSLTCTVSGGSISSGSYYWSWIRQPAGKGLEWIGSIYTSGSTYYNPSLKSRVTISVDTSKNQFSLKLSSVTAADTAVYYCARKNWLQGSFDYWGQGTLVIVSS
VL: NFMLTQPHSVSESPGKTVTISCTRSSGSIANNYVQWYQQRPGSAPTTVIYEDNQRPSGVPDRFSGSIDSSSNSASLTISGLKTEDEADYYCQSYDTSNHGVFGGGTKLTVL
B7: anti-SARS-CoV-2 antibody 1012 (antibody, V domains shown)
VH: EVQVVESGGGLVQPGGSRRLSCTASGFTLRNYWMSWVRQAPGKGLEWVANIKQDGSEKYYVDSVKGRFTISRDNAKNSLYLQMDSLRAEDTAVYYCARGGRYCPGGSCPRWGRGTLVTVSS
VL: DIQMTQSPSSLSASVGDRVTITCQASQDISNFLNWYQLKPGEAPTLLIFDASKLETGVPSRFSGTGFGTDFTFTISSLQPEDTATYYCQQYDDLTSITLGQGTRLEIK
B8: anti-SARS-CoV-2 antibody 1015 (antibody, V domains shown)
VH: EVQLVESGGGLVQPGGSLRLSCAASGFTFSSYWMHWVRQAPGKGLVWVSHINSDGSSTSYADSVKGRFTISRDNAKNTLYLQMNSLRAEDTAVYYCARGLRYFDLDVWGQGTTVTVSS
VL: QSVLTQPPSVSEAPRQRVTISCSGSSSNIGNNAVNWYQQLPGKAPKLLIFYDDLLPSGVSDRFSGSKSGTSASLAISGLQSEDEADYYCAAWDDSLNGGVFGGGTKLTVL
B9: anti-SARS-CoV-2 antibody 1027 (antibody, V domains shown)
VH: EVQLVESGGGLVQPGGSLRLSCAASGFTVSSNYMSWVRQAPGKGLEWVSIIYSGGSTFYADSVKGRFTISRDSSKNTLYLQMSSLRAEDTAVYYCARDLDYYGMDVWGQGTTVTVSS
VL: DIQLTQSPSFLSAPVGDRVTITCRASQGISSYLAWYQQKPGKAPKLLIYGASTLQSGVPSRFSGSGSGTEFTLTISSLQPEDFATYYCQQLNSYQRFTFGPGTKVEIK
B10: anti-SARS-CoV-2 antibody 1037 (antibody, V domains shown)
VH: QITLKESGPTLVKPTQTLTLTCTFSGFSLSTSGVGVGWIRQPPGKALEWLALIYWDDDKRYSPSLKSRLTITKDTSKNQVVLTMTNMDPVDTATYYCAHHTITRINDYWGQGTLVTVSS
VL: QSALTQPASVSGSPGQSITISCTATSSDVGAYNYVSWYQQHPGKAPKLMIYDVSKRPSGVSNRFSGSKSGNTASLTISGLQAEDEADYYCSSYTSSSTVFGGGTKLTVL
B11: anti-SARS-CoV-2 antibody 1075 (antibody, V domains shown)
VH: QVQLVQSGAEVKKPGASVKVSCKVSGYTLIELSMHWVRQAPGKGLEWMGGFDPEDGETIYAQKFQGRVTMTEDTSTDTAYMELSSLRSEDTAVYYCATEWAYYGSGSYLGYWGQGTLVTVSS
VL: EIVMTQSPATLSVSPGERATLSCRASQSVSSNLAWFQQKPGQAPRLLIYGASTRVTVIPARFSGSGSGTEFTLTISSLQSEDFAVYYCQQYNNWPRTFGQGTKVEIK
B12: anti-SARS-CoV-2 antibody 1081 (antibody, V domains shown)
VH: EVQLVQSGAEVKKPGESLKISCKRSGYSFTTYWIGWVRQMPGKGLEWMGSIYPGDSDTRYSPSFQGQVTISADKSISTAYLQWSSLKASDTAMYYCASQEVPGYYYYMDVWGKGTTVTVSS
VL: DIQMTQSPSSLSASVGDRVTITCRASQSISSYLHWYQQKPGKAPKLLIYAASSLQSGVPSRFSGSGSGTDFTLTISSLQPEDFATYYCQQTYSTHTWTFGQGTKVEIK
B13: anti-SARS-CoV-2 antibody 1091 (antibody, V domains shown)
VH: EVQLVESGGGLVKPGGSLRLSCAASGFPFITYSMNWVRQAPGKGLEWVSSISRNSDYIYYADSVRGRVTISRDNAENSLYLQMHSLRAEDTAVYYCARDVVRSGNYYIPRHGMDVWGRGTTVTVSS
VL: QSVLTQPPSASGTPGQRVTISCSGTSSNIGSNTVNWYQQLPETAPKLLIYGTDQRPSGVPDRFSGSKSGTSASLAISRLQSEDEADYYCATRDDSLSGPVFGGGTQLTVL
B14: anti-SARS-CoV-2 antibody 1098 (antibody, V domains shown)
VH: B12 VH with E1D, R24G, S28R, T31S, G35A, S50I, E100A, V101A, P102A, Y105F
VL: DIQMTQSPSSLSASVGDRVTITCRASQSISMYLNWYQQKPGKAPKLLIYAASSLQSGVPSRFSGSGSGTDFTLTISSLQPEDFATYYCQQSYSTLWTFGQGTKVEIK
B15: anti-SARS-CoV-2 antibody 1118 (antibody, V domains shown)
VH: EVQLVESGGGLVQPGGSLRLSCAASGFRFSNYEMNWVRQAPGKGLEWVSYISSTGGSIFYADSVKGRFTISRGDAKNSVYLQMNSLRAEDTAVYYCARAMYYYGSGTLDYWGQGTLVTVSS
VL: DIQMTQSPSSLSASVGDRVTITCRASQSISRFLNWYQQKPGTAPKLLIYDVSSLQSGVPTRFSGSGSGTDFTLTISSLQPEDFATYYCQQSYTTPPAFGPGTRVDIK
B16: anti-SARS-CoV-2 antibody 1193 (antibody, V domains shown)
VH: EVQLVESGGGLVQPGGSLRLSCAASGFTFSSYYMNWVRQAPGKGLEWVSYISSGSSIIYYADSVKGRFTISRDNAKNSLYLQMNSLRDEDTAVYYCARDSPLRYFDWQLGGGFDYWGQGTLVTVSS
VL: QSALTQPASVSGSPGQSITISCTGTSSDVGGYNYVSWYQQHPGKAPKLMIYDVSNRPSGVSNRFSGSKSGNTASLTISGLQAEDEADYYCSSYTSSSLWVFGGGTKLTVL
B17: anti-SARS-CoV-2 antibody 1203 (antibody, V domains shown)
VH: QLRLQESGPGLVKPSETLSLTCTVSGGSISSSNFYWGWIRQPPGKGLEWIGSIYYSGSTHYNPSLKSRVTVSVDTSKNQFSLKLSSVTAADTAVYYCARLTYYYDSSGFIRAEPFDYWGQGILVTVSS
VL: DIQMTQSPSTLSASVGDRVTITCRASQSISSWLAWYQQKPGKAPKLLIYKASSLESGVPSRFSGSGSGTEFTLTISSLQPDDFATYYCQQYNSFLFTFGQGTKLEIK
B18: antibody 560 (antibody, V domains shown)
VH: EVQLVESGGGLVQPGGSLRLSCAASGFTISSNYMSWVRQAPGKGLEWVSVIYSGGSTYYADSVKGRFTISRDNSKNTLYLQMNSLRAEDTAVYYCAREEGEWEKDYYGMDVWGQGTTVTVSS
VL: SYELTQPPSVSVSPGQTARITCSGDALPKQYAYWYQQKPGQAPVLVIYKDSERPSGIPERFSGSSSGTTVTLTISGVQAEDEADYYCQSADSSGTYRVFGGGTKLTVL
B19: antibody 260 (antibody, V domains shown)
VH: EVQLVESGGGLVQPGRSLRLSCAASGFTFDYYAMHWVRQAPGKGLEWVSGISWNSGTIGYADSVKGRFTISRDNAKNSLYLQMNSLRAEDTALYYCAKDSRPSGRYYYGMDVWGQGTTVTVSS
VL: not shown
B20: antibody 263 (antibody, V domains shown)
VH: EVQLVQSGAEVKKPGATVKISCKVSGYTFTDYYMHWVQQAPGKGLEWMGLVDPEDGETIYAEKFQGRVTITADTSTDTAYMELSSLRSDDTAVYYCTTDLAFTIFGGRRGFDPWGQGTLVTVSS
VL: DIQLTQSPSFLSASVGDRVTITCRASQGISSYLAWYQQKPGKAPKLLIYAASTLQSGVPSRFSGSGSGTEFTLTISSLQPEDFATYYCQQLNSYDFGQGTRLEIK
B21: antibody 264 (antibody, V domains shown)
VH: QVHLVESGGGVVQPGRSLRLSCAASGFTLTSYAMHWVRQAPGKGLEWVALISYDGSVKKYAESVKGRITVSGDNSRNTLHLQINTLRADDTAVYYCVRGGVSGPNSFDLWGQGTMVTVSS
VL: DVVMTQSPLSLPVTLGQPASISCRSSQSLEYSDGNTYVNWFQQRPGQSPRRLIYQVSNRASGVPDRFSGSGSGTDFTLQISRVEAEDVGIYYCMQGTHWPVTFGQGTKVEIK
B22: antibody 265 (antibody, V domains shown)
VH: EVQLVQSGAEVKKPGATVKVSCKFSGDTFSHYYIHWVQQAPGKGLEWMGLVDPQDGESEYAQKFQGKVTITADTSIDTSYLEVTSLRFDDTAFYFCATRGMSGAFDRWGQGTLVTVSS
VL: DIVMTQSPDSLAVSLGERATINCKSSQSILSTSNNKNYLAWYQQKPGQPPKLLIYWASTRESGVPDRFSGGGSGTDFTLTISSLQAEDVAVYYCQQYYRTAYTTPIYTFGQGTKLEIK
B23: antibody 266 (antibody, V domains shown)
VH: QVQLVESGGGVVQPGRSLRLSCAASGFNLSNYAMHWVRQPSGKGLEWVSLISYDGSIKYYTDSVKGRFTVSGDNSKNTLFLQMNSLRPDDSALYYCVRGGVSGPNSFDMWGQGTTVTVSS
VL: B21 VL with E30V, N58I, T77A, Q79K, I90V

biological target: SARS-CoV-2 spike protein with D614G mutation (SARS-CoV-2, UniProt P0DTC2 14-1208)

Binder | Kd [nM]
B1 | 0.022
B2 | 29
B3 | 1.3
B4 | 0.039
B5 | 0.016
B6 | 0.034
B7 | 0.027
B8 | 0.02
B9 | 0.043
B10 | 0.023
B11 | 0.023
B12 | 0.041
B13 | 0.019
B14 | 0.022
B15 | 0.044
B16 | 0.041
B17 | 0.079

biological target: SARS-CoV-2 full length spike protein, V483A mutant (SARS-CoV-2, UniProt P0DTC2 14-1273)

Binder | median fold over isotype [fold over isotype]
B18 | 14.8

biological target: SARS-CoV-2 full length spike protein, V483A mutant (SARS-CoV-2, UniProt P0DTC2 14-1273); remark: another data set of the same source

Binder | median fluorescence intensity, fold over isotype control [fold over isotype]
B19 | 11
B20 | 17.3
B21 | 11.1
B22 | 14.5
B23 | 10.8
